In data set [1] the test system is PC-3 tumor xenografts. Briefly: Biodistribution. Particulars: PC-3 tumor bearing SCID mice; for tumor retention: initial (15 min) uptake retained in the tumor tissue: 24 hr post-injection relative to the 15 min values.
A short description of data set [2]: Biodistribution. Particulars: ICR SCID, mouse, in vivo, 185 kBq, total radioactivity, tumor uptake, PC-3 tumor bearing SCID mice, 15 min post-injection.

Turning to `CSCC[C@H](NC(=O)[C@H](CC(C)C)NC(=O)[C@H](Cc1cnc[nH]1)NC(=O)CNC(=O)[C@@H](NC(=O)[C@H](C)NC(=O)[C@H](Cc1c[nH]c2ccccc12)NC(=O)[C@H](CCC(N)=O)NC(=O)c1ccc(NC(=O)CN2CCN(CC(=O)O)CCN(CC(=O)O)CCN(CC(=O)O)CC2)cc1)C(C)C)C(N)=O` [In-DOTA-AMBA-BBN(7-14)NH2], in data set [1], the “tumor retention: initial (15 min) uptake retained in the tumor tissue” value (from here on “tumor retention: initial”) is recorded as 26.6%. The tissue uptake (usually the percentage of the injected dose found per gram of tissue) at 0.25 h in data set [2] was found to be 6.36 ± 1.6 %ID/g.

Take `CSCC[C@H](NC(=O)[C@H](CC(C)C)NC(=O)[C@H](Cc1cnc[nH]1)NC(=O)CNC(=O)[C@@H](NC(=O)[C@H](C)NC(=O)[C@H](Cc1c[nH]c2ccccc12)NC(=O)[C@H](CCC(N)=O)NC(=O)CCCCCCCNC(=O)CN1CCN(CC(=O)O)CCN(CC(=O)O)CCN(CC(=O)O)CC1)C(C)C)C(N)=O` [In-DOTA-8-AOC-BBN(7-14)NH2]: the Heart in data set [1] (1 hr p.i., i.v.) is reported as 0.19 ± 0.20 %ID/g. Also, in data set [1] (4 hr p.i., i.v., n = 5), the Liver came out at 0.15 ± 0.02 %ID/g. The molecule also gave a Lung in data set [1] (24 hr p.i., i.v., n = 5) of 0.07 ± 0.03 %ID/g. Also, in data set [1], the “tumor retention: initial” value was determined as 11.4%. The tissue uptake at 0.25 h in data set [2] came to 6.66 ± 2 %ID/g.

Consider `CSCC[C@H](NC(=O)[C@H](CC(C)C)NC(=O)[C@H](Cc1c[nH]cn1)NC(=O)CNC(=O)[C@@H](NC(=O)[C@H](C)NC(=O)[C@H](Cc1c[nH]c2ccccc12)NC(=O)[C@H](CCC(N)=O)NC(=O)CCC(=O)NCCOCCOCCNC(=O)CN1CCN(CC(=O)O)CCN(CC(=O)O)CCN(CC(=O)O)CC1)C(C)C)C(N)=O` [In-DOTA-8-ADS-BBN(7-14)NH2], for which, in data set [1], the “tumor retention: initial” value stood at 19.8%. For the same molecule, the tissue uptake at 0.25 h in data set [2] worked out at 6.21 ± 1.57 %ID/g.
